Experimental data taken from PMC7442782, “Molecular basis for DNA repair synthesis on short gaps by mycobacterial Primase-Polymerase C” (Nature Communications, 2020).
Residue numbers refer to the chain shown, from its start.

Legend:
[1] = biological target: T1, Prim–PolC (Msm Prim–PolC) (Mycolicibacterium smegmatis, UniProt A0R5T1); experiment: X-ray crystal structure, […] Å; assay type: binding; details: pre-catalytic ternary complex with 2-nt gapped DNA and two Mn2+; active site; pH 6.5
T1 construct: gene ligD; residues 4-336 printed for the crystal structure (may be the ordered part of the full-length protein); N-terminal His tag, pET28, made in E. coli Origami B pLysS
T1 sequence (A0R5T1 4-336): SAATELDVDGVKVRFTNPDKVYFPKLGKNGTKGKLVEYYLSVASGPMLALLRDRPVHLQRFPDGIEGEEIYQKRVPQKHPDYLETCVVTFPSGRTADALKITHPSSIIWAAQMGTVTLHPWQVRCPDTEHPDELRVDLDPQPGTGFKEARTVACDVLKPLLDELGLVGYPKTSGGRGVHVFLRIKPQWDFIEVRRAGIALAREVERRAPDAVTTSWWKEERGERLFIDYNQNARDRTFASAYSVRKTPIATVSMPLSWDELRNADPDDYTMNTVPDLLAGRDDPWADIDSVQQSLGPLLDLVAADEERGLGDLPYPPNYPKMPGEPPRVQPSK

[2] = biological target: T2, Prim-PolC (crystallisation construct) (UniProt A0R5T1 4-336); experiment: X-ray crystallography (2.2 A); Mn2+, UpNHpp; Crystals: 0.05 M Na cacodylate pH 6.5, 2 M ammonium sulfate, 0.01 M MnCl2, 285 K, 300 uM protein:600 uM DNA; 2-AP assay: 0-1 uM protein, 1 uM DNA, 5 mM Ca2+, 250 uM ATP (buffer, pH and temperature not in material); details: protein: recombinant; tags: N-terminal His; gapped duplex, 2-nt gap (AA), blunt outer ends
T2 sequence: T1 sequence (A0R5T1 4-336)

[3] = biological target: T3, Prim-PolC WT (UniProt A0R5T1 1-350); experiment: 2-aminopurine fluorescence (base flipping); 5 mM Ca2+, 250 uM ATP; Crystals: 0.05 M Na cacodylate pH 6.5, 2 M ammonium sulfate, 0.01 M MnCl2, 285 K, 300 uM protein:600 uM DNA; 2-AP assay: 0-1 uM protein, 1 uM DNA, 5 mM Ca2+, 250 uM ATP (buffer, pH and temperature not in material); details: protein: recombinant, tags: N-terminal His, label: 2-AP, gapped duplex
T3 sequence: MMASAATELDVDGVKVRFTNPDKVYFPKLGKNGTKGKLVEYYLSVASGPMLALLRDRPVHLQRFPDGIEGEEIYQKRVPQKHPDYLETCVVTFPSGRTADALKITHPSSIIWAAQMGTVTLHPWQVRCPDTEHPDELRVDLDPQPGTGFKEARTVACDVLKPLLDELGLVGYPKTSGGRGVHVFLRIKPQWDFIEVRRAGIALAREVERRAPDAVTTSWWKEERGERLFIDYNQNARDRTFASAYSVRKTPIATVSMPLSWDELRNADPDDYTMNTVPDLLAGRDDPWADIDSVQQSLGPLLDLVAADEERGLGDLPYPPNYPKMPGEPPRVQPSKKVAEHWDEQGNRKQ

[4] = biological target: T4, Prim-PolC N321A (UniProt A0R5T1 1-350, N321A); experiment: 2-aminopurine fluorescence (base flipping); 5 mM Ca2+, 250 uM ATP; similar to WT; Crystals: 0.05 M Na cacodylate pH 6.5, 2 M ammonium sulfate, 0.01 M MnCl2, 285 K, 300 uM protein:600 uM DNA; 2-AP assay: 0-1 uM protein, 1 uM DNA, 5 mM Ca2+, 250 uM ATP (buffer, pH and temperature not in material); details: protein: recombinant; tags: N-terminal His; label: 2-AP; gapped duplex, 1-nt gap
T4 sequence: T3 sequence with N321A

[5] = biological target: T5, Prim-PolC N321G (UniProt A0R5T1 1-350, N321G); experiment: as above; details: protein: recombinant, tags: N-terminal His, label: 2-AP, gapped duplex
T5 sequence: T3 sequence with N321G

[6] = biological target: T2, Prim-PolC (crystallisation construct); experiment: X-ray crystallography (2.0 A); Mn2+; PPi in one complex, 3'-dUTP in the other; Crystals: 0.05 M Na cacodylate pH 6.5, 2 M ammonium sulfate, 0.01 M MnCl2, 285 K, 300 uM protein:600 uM DNA; 2-AP assay: 0-1 uM protein, 1 uM DNA, 5 mM Ca2+, 250 uM ATP (buffer, pH and temperature not in material); details: protein: recombinant; tags: N-terminal His; gapped duplex, 1-nt gap, blunt outer ends

Molecule: O=c1ccn([C@@H]2O[C@H](COP(=O)(O)NP(=O)(O)OP(=O)(O)O)[C@@H](O)[C@H]2O)c(=O)[nH]1 [UpNHpp]
- X-ray crystal structure, 2.21 Å [1]: a non-hydrolysable incoming UTP ribonucleotide (UpNHpp) and manganese ions were also included

B1: 2-nt gapped DNA T/P/D (dsDNA)
DNA 1: CGCTCGCAACGCACG
DNA 2: CGTGCG
DNA 3: GCGAGCG
modifications: 5'-phosphate on D strand
- binding result [2]: binds

B2: 2-AP 1-nt gap substrate (dsDNA)
DNA 1: AGTCGCATAGTGTAGTCATGTCGATTCGCCATAG
DNA 2: CTATGAGCGAATCGAC
DNA 3: CGACTACACTATGCGACT
modifications: 2-aminopurine at position 15 of primer oKZ282 (written A); 5'-phosphate on downstream strand
- binding result ([3]; 1-nt gap): binds
- binding result [4]: binds
- binding result ([5]; 1-nt gap): binds

B3: 2-AP 3-nt gap substrate (dsDNA)
DNA 1: B2 DNA 1
DNA 2: CTATGAGCGAATCGAC
DNA 3: ACTACACTATGCGACT
modifications: 2-aminopurine at position 15 of primer oKZ282 (written A); 5'-phosphate on downstream strand
- binding result ([5]; 3-nt gap): binds

B4: 2-AP 2-nt gap substrate (dsDNA)
DNA 1: B2 DNA 1
DNA 2: CTATGAGCGAATCGAC
DNA 3: GACTACACTATGCGACT
modifications: 2-aminopurine at position 15 of primer oKZ282 (written A); 5'-phosphate on downstream strand
- binding result ([3]; 2-nt gap): binds

B5: 1-nt gapped post-catalytic DNA (mixed)
DNA 1: CGCTCGCAACGCACG
DNA 2: CGTGCGU
?: GCGAGCG
modifications: 5'-phosphate on D strand; primer 3' terminus is 3'-deoxyuridine (ribo, incorporated in situ)
- binding result [6]: binds
